In patent US20060014264, “Cre/lox system with lox sites having an extended spacer region” (Stowers Institute for Medical Research, published 2006):

T1: Cre 286::LRPHW (Enterobacteria phage P1, UniProt P06956 SEQ:1-348)
T1 chain: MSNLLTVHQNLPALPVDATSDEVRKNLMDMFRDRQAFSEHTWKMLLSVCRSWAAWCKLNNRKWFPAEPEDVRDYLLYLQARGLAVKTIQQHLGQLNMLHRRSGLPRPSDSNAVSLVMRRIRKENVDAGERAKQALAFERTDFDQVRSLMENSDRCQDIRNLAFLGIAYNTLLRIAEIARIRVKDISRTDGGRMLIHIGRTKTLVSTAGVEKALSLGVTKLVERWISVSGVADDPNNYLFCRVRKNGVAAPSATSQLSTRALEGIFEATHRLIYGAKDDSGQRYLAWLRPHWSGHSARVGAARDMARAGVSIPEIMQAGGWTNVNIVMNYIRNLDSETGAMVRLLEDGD

T2: Cre 18::CGRNA+P15L (Enterobacteria phage P1, UniProt P06956 SEQ:1-348)
T2 chain: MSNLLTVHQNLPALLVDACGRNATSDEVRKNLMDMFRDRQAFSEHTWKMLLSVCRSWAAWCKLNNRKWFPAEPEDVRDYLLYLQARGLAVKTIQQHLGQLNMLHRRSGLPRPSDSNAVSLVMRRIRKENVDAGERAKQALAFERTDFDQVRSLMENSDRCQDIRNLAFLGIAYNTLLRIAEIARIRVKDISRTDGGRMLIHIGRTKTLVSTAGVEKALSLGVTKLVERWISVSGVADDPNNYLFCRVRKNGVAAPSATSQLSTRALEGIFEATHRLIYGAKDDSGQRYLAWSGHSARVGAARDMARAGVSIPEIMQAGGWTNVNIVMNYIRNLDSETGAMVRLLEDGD

T3: Cre 24::CGRIR (Enterobacteria phage P1, UniProt P06956 SEQ:1-348)
T3 chain: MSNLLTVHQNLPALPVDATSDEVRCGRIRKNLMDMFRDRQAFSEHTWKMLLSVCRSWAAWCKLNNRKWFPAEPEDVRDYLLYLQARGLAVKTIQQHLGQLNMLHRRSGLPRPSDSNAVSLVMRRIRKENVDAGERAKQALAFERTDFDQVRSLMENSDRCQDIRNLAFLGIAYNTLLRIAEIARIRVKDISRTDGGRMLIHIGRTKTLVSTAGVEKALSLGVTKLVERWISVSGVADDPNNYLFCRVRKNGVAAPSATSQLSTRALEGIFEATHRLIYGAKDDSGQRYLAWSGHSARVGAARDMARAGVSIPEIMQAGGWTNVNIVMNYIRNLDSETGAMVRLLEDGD

T4: Cre 24::CGRIR (in E. coli) (Enterobacteria phage P1, UniProt P06956 SEQ:1-348)
T4 chain: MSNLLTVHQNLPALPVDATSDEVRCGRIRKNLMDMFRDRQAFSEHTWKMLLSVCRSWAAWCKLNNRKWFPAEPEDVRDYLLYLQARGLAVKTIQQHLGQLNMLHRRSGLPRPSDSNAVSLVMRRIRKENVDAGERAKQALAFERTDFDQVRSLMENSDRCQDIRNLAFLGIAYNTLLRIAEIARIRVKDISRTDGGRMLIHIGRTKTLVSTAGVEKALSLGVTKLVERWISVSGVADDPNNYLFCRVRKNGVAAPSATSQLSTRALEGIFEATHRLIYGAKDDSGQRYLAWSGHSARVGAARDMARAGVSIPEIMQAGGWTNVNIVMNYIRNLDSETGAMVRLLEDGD

T5: Cre 280::CGRTG (in E. coli) (Enterobacteria phage P1, UniProt P06956 SEQ:1-348)
T5 chain: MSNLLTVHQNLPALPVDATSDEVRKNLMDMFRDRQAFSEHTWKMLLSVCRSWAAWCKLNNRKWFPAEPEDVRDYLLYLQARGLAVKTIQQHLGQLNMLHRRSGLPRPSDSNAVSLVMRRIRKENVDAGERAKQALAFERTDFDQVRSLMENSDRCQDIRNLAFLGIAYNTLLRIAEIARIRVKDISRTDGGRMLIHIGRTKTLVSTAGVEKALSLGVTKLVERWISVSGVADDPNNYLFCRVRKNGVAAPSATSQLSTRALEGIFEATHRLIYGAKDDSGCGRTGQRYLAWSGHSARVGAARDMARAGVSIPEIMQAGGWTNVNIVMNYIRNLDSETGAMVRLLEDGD

T6: Cre 18::CGRNA+P15L (in E. coli) (Enterobacteria phage P1, UniProt P06956 SEQ:1-348)
T6 chain: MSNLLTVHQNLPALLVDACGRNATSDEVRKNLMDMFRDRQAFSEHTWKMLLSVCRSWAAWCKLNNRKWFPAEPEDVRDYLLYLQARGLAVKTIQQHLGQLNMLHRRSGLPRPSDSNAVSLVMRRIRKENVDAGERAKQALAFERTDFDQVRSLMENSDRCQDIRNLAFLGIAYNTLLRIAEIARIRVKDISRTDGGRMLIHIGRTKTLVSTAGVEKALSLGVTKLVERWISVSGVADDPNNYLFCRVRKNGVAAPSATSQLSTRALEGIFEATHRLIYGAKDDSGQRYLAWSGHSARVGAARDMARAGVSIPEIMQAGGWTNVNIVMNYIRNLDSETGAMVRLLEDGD

T7: Cre 286::LRPHW (in E. coli) (Enterobacteria phage P1, UniProt P06956 SEQ:1-348)
T7 chain: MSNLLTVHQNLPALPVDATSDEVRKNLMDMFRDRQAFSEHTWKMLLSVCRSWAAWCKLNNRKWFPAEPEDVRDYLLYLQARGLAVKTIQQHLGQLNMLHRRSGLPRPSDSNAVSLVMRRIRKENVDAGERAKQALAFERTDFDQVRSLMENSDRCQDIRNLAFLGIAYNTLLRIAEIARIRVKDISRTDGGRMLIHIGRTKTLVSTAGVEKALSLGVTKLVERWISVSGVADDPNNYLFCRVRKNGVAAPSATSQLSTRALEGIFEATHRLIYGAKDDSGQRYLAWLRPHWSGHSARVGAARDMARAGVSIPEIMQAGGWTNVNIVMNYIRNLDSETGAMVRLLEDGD


How the values were obtained:
[1] = target: Cre wt (Enterobacteria phage P1, UniProt P06956 SEQ:1-343); assay: cleavage_in_vitro; reference for mutants; cleavage strongly reduced on intact lox+3; 30 nM Cre, 10 mM MgCl2, 37 C; settings: chain copies: 2 per lox site (stated); label: 5'-32P
Experimental: (§1) DNA cleavage reactions were in a 12 μl reaction volume containing Cre reaction buffer, 83 ng/μl BSA, 8.3 ng/μl calf thymus DNA, […] appropriate ³²P-labeled DNA substrate and 30 nM of Cre. Reactions were incubated at 37° C. for 1 hour, terminated by addition of 12 μl of 2×SDS-gels loading buffer (x: 40 mM Tris-HCl pH 6.8, 50 mM DTT, 1.0% SDS, 7.5% Glycerol, 0.01% Bromphenol Blue), heated at 95° C. for 5 minutes and then analyzed by 15% SDS-PAGE. Gels were quantified using a PhosphorImager (Molecular Dynamics, Sunnyvale, Calif.) scanner.
(§2) The ability of each mutant to catalyze cleavage at the lox⁺³ site on an unnicked 54 bp substrate was examined. Cleavage by Cre is easily detected as a slowly moving band on a polyacrylamide gel resulting from the formation of a protein-DNA complex in which the catalytic tyrosine of Cre is covalently linked to a 3′ phosphate of the labeled DNA substrate at the site of cleavage (FIG. 3).

[2] = target: T1, Cre 286::LRPHW; assay: cleavage_in_vitro; covalent complex, top strand; 30 nM Cre; settings: chain copies: 2 per lox site (stated); label: 5'-32P
Experimental: as §1, §2

[3] = target: T2, Cre 18::CGRNA+P15L; assay: as above; settings: chain copies: 2 per lox site (stated); label: 5'-32P
Experimental: as §1, §2

[4] = target: T3, Cre 24::CGRIR; assay: as above; settings: chain copies: 2 per lox site (stated); label: 5'-32P
Experimental: as §1, §2

[5] = target: T4, Cre 24::CGRIR (in E. coli); assay: cell_activity; background 0.001%; settings: chain copies: 2
[6] = target: T5, Cre 280::CGRTG (in E. coli); assay: cell_activity; background 0.001%; settings: chain copies: 2
[7] = target: T6, Cre 18::CGRNA+P15L (in E. coli); assay: cell_activity; background 0.001%; settings: chain copies: 2
[8] = target: T7, Cre 286::LRPHW (in E. coli); assay: cell_activity; background 0.001%; settings: chain copies: 2
[9] = target: Cre wt (in E. coli) (Enterobacteria phage P1, UniProt P06956 SEQ:1-343); assay: cell_activity; background 0.001%; settings: chain copies: 2

Binder	covalent cleavage complex formation [1]	cleavage (covalent Cre-DNA complex) [2]	cleavage (covalent Cre-DNA complex) [3]	cleavage (covalent Cre-DNA complex) [4]	activity [5]	activity [6]	activity [7]	activity [8]	activity [9]
lox+3 cleavage oligonucleotide KC341 duplex (dsDNA) DNA 1: TCGAGTGCACAACTTCGTATAATGATTTATGCTATACGAAGTTATCATTCGCTAG DNA 2: CTAGCGAATGATAACTTCGTATAGCATAAATCATTATACGAAGTTGTGCACTCGA	1 fold vs wt Cre	4 fold vs wt Cre	20 fold vs wt Cre	4 fold vs wt Cre	–	–	–	–	–
lox+3 site (in plasmid or PCR fragment) (dsDNA) DNA 1: ACAACTTCGTATAATGATTTATGCTATACGAAGTTAT DNA 2: ATAACTTCGTATAGCATAAATCATTATACGAAGTTGT	–	–	–	–	94 % recombination (KnR)	61 % recombination (KnR)	56 % recombination (KnR)	92 % recombination (KnR)	0.1 % recombination (KnR)
